Data published in patent US20230192853A1.

Molecular target: human CD8 on cells (HPBALL cells, TALL1 cells, CD8+ T cells of human whole blood and PBMCs) (human) (UniProt P01732)
Assay: flow cytometry of human whole blood, AF647-labeled OKT8 at 20 ng/mL against CD3 APC-Vio770

Chain of human CD8 on cells (HPBALL cells, TALL1 cells, CD8+ T cells of human whole blood and PBMCs) (human) (P01732 22-234 limits assumed): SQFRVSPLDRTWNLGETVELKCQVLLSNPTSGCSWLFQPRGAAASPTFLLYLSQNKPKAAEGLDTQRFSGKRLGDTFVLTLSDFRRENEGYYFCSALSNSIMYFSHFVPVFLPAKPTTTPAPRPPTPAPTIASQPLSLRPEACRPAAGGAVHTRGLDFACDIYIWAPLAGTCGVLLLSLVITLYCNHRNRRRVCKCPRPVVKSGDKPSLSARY

B1: OKT8 anti-CD8 IgG labeled with ALEXA FLUOR 647 (antibody, from another filing, V domains shown)
VH: EVQLQQSGAELVKPGASVKLSCTASGFNIKDTYIHFVRQRPEQGLEWIGRIDPANDNTLYASKFQGKATITADTSSNTAYMHLCSLTSGDTAVYYCGRGYGYYVFDHWGQGTTLTVSS
VL: DVQINQSPSFLAASPGETITINCRTSRSISQYLAWYQEKPGKTNKLLIYSGSTLQSGIPSRFSGSGSGTDFTLTISGLEPEDFAMYYCQQHNENPLTFGAGTKLELK
- share of events in Q2 (CD3 positive, mAb/VHH AF647 positive): 19.7%
- share of events in Q3 (CD3 negative, mAb/VHH AF647 positive): 0.73%
